± gives the standard deviation of the averaged measurements.
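Further: PSI is a weighted mean of sequencing reads over stability bins, variants kept only with over 10 reads, mCherry proximal and sfGFP distal, peptide attached via GGGS linker.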

In the series the test system is Saccharomyces cerevisiae. The series is described as follows: protein stability index of tFT-peptide fusion (C-terminal peptide) (PSI (0-1 scale)); higher = more stable (slower turnover). To be noted: genetic background: wild type; temperature: 30 C.
MRSTFFFLQHRH registered a protein stability index of 0.614 ± 0.013. In turn, MSGKIMVLQKEE registered a protein stability index of 0.643 ± 0.013.

MSIDQPLLGTGV returned a protein stability index of 0.638 ± 0.034. The sequence MSLSYYFSPVYS gave a protein stability index of 0.625 ± 0.044. Then MSRRHDQESIHV, with 0.673 ± 0.021; and MVIYGKEGWRIQ, with 0.661 ± 0.07; and MYSSIFTHVFGV, with 0.734 ± 0.024. NARGRGAGGAST came in with a protein stability index of 0.626 ± 0.048. NASASTLPFPLD showed a protein stability index of 0.71 ± 0.054. In the case of NDAKQKRLTFET, the protein stability index worked out at 0.671 ± 0.048. NDFFVVFSVGEC had a protein stability index of 0.613 ± 0.041. Take NDGIKYQSEKRR: the protein stability index worked out at 0.7 ± 0.02. Then NDHEQGPTQARG, with 0.669 ± 0.044.

Take NDQASVLSFRSV: the protein stability index was determined as 0.664 ± 0.063. NEPQDQLQEQAT gave a protein stability index of 0.665 ± 0.069.

On to NFIKCASDIRID, for which the protein stability index stood at 0.67 ± 0.027. NFPPTPECSFVS showed a protein stability index of 0.643 ± 0.0086. For the sequence NFTPRKHARQRP, the protein stability index was 0.736 ± 0.0088.

Turning to NFTSYDIYLSCS, the protein stability index worked out at 0.671 ± 0.016. Then NGCVRNVSSLVF, with 0.607 ± 0.066. The same measure for NGGFIGVYICRT: 0.73 ± 0.13; for NGGKDAVVLGGG: 0.636 ± 0.054; for NGGSAKVYLGKI: 0.652 ± 0.019. Take NGKFLREKMRWG: the protein stability index came out at 0.662 ± 0.036. The same measure for NGKGECSLESSS: 0.677 ± 0.013. With NGKKYWQEYGWG, the protein stability index was 0.686 ± 0.025. NGMKDKTKIAKI yielded a protein stability index of 0.701 ± 0.008. Consider NGRPGPAEPELW, for which the protein stability index came out at 0.692 ± 0.043. Sequence NGVRGRGGQWVQ had a protein stability index of 0.725 ± 0.03. As to NGVVAYHVQSFC, the protein stability index turned out to be 0.6 ± 0.011. Consider NHRQPNSTKNRT, for which the protein stability index was determined as 0.547 ± 0.044. In turn, NHVWGSNRCSSC registered a protein stability index of 0.689 ± 0.04. NIIYKRKKGRRW gave a protein stability index of 0.6889 ± 0.001. In turn, NIKIILPWNPPE displayed a protein stability index of 0.667 ± 0.013. NIKITVHSTMDM displayed a protein stability index of 0.698 ± 0.019. On to NINHTNLKENKD, for which the protein stability index was determined as 0.667 ± 0.0099. The same measure for NINVSFLSNECR: 0.6735 ± 0.0021.

With NISIFGSRLRVV, the protein stability index came out at 0.533 ± 0.034. Then NITIEGVELERV, with 0.715 ± 0.029; and NKHYIQSHTDPD, with 0.698 ± 0.023. In the case of NKKIKKDKIKGK, the protein stability index is 0.692 ± 0.031. NKKKKQRMKRNG came in with a protein stability index of 0.719 ± 0.12. The sequence NKKRKYRKNKRG displayed a protein stability index of 0.6096 ± 0.0051. In turn, NKKTYHRPTKNY showed a protein stability index of 0.693 ± 0.015.

As to NKRKDEIKPRNV, the protein stability index was 0.581 ± 0.049.

The sequence NKRKTKNKERRA returned a protein stability index of 0.65 ± 0.012.

On to NKSPWYYILQPM, for which the protein stability index is 0.738 ± 0.082.

The sequence NKSTAEVKMEIR displayed a protein stability index of 0.686 ± 0.064.

Consider NKVLHPGGKPLT, for which the protein stability index was determined as 0.6637 ± 0.0062.

NKWKASRKYRKR: the protein stability index came to 0.723 ± 0.025. As for NLARPTRTFAGV, the protein stability index was determined as 0.684 ± 0.013. NLCTPRFATDFG had a protein stability index of 0.629 ± 0.028. NLFDHIHRSTPS: the protein stability index amounted to 0.761 ± 0.0078. In the case of NLIGVVKSEYHR, the protein stability index is 0.574 ± 0.01. For the sequence NMLWSLGRGGSC, the protein stability index is 0.6648 ± 0.0029.

For NMRQGPLAGLAG, the protein stability index stood at 0.748 ± 0.072. The same measure for NNKSNKKKERKE: 0.698 ± 0.053; for NNMFFTREYEKL: 0.674 ± 0.013; for NNMSFLPMLDYT: 0.65 ± 0.042.

Take NNQKTKLNEKNC: the protein stability index was 0.647 ± 0.048. As to NNVCGIIFRQHH, the protein stability index is 0.632 ± 0.048. In the case of NPARPRPPPRER, the protein stability index was 0.595 ± 0.057. The same measure for NPDVYKRNYQHK: 0.605 ± 0.035. Turning to NPLHGNIRLSPL, the protein stability index was determined as 0.685 ± 0.046.
